We go through two molecules from PMC11288887 (2024).

Some targets named below: (DLP)6 binder; (DLS)6 binder; (KLP)6 binder.
Holding throughout (experiment): FP

No end group written: not given here.

B1: (KLP)6 (peptide)
peptide: tetramethylrhodamine-KLPKLPKLPKLPKLPKLP
By Kd is commonly meant the equilibrium constant for the complex coming apart. Consider B1, for which the Kd was about 1 µM with (DLP)6 binder and about 1.8 µM in the assay with (DLS)6 binder.

B2: (DLP)6 (peptide)
peptide: tetramethylrhodamine-DLPDLPDLPDLPDLPDLP
Consider B2, for which the figures for the Kd with (KLP)6 binder and with (DLS)6 binder were 0.0046 µM and 0.0007 µM, respectively.
